Laboratory results: the supplement of paper PMC5998384

Legend:
HeLa Kyoto [1] = experiment: solubility in G1/S (NP-40 vs SDS abundance) (log2 ratio); higher = more soluble; conditions: cell cycle stage: G1/S
HeLa Kyoto [2] = experiment: melting temperature (median over replicates), in situ; higher = more thermally stable
HeLa Kyoto [3] = experiment: thermal stability score vs G1/S (z-score of summed log2 fold changes over temperatures); higher = more thermally stable than in G1/S
HeLa Kyoto [4] = experiment: solubility change mitosis vs G1/S (difference of NP-40 vs SDS log2 ratios) (log2 ratio difference); higher = more soluble in mitosis
[5] = cell cycle stage: early G1 (4.5 h after nocodazole release)
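For melting temperature (median over replicates), in situ in this document: HeLa Kyoto cells synchronized by double thymidine or nocodazole block, proteins quantified by TMT10plex mass spectrometry, three independent biological replicates.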
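For solubility change mitosis vs G1/S (difference of NP-40 vs SDS log2 ratios) in this document: synchronized HeLa Kyoto cells (double thymidine block for G1/S, nocodazole release for mitosis), protein amounts in NP-40 versus SDS lysates quantified by mass spectrometry, three biological replicates.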
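For solubility in G1/S (NP-40 vs SDS abundance) in this document: HeLa Kyoto cells arrested at G1/S by double thymidine block, proteins quantified by TMT10plex mass spectrometry in mild NP-40 versus SDS extracts, three biological replicates.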
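For thermal stability score vs G1/S (z-score of summed log2 fold changes over temperatures) in this document: synchronized HeLa Kyoto cells, proteins quantified by TMT10plex mass spectrometry, three biological replicates, mitosis taken 0.5 h after nocodazole release, G1/S directly after double thymidine block.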

Row | Sequence | solubility in G1/S (log2) (HeLa Kyoto [1]) | melting temperature (HeLa Kyoto [2]; cell cycle stage: G1/S) [°C] | melting temperature (HeLa Kyoto [2]; cell cycle stage: mitosis) [°C] | thermal stability score (HeLa Kyoto [3]; [5]) | thermal stability score (HeLa Kyoto [3]; cell cycle stage: mitosis) | solubility change mitosis (log2) (HeLa Kyoto [4])
1 | MWKLLPAAGPAGGEPYRLLTGVEYVVGRKNCAILIENDQSISRNHAVLTANFSVTNLSQTDEIPVLTLKDNSKYGTFVNEEKMQNGFSRTLKSGDGITFGVFGSKFRIEYEPLVACSSCLDVSGKTALNQAILQLGGFTVNNWTEECTHLVMVSVKVTIKTICALICGRPIVKPEYFTEFLKAVESKKQPPQIESFYPPLDEPSIGSKNVDLSGRQERKQIFKGKTFIFLNAKQHKKLSSAVVFGGGEARLITEENEEEHNFFLAPGTCVVDTGITNSQTLIPDCQKKWIQSIMDMLQRQGLRPIPEAEIGLAVIFMTTKNYCDPQGHPSTGLKTTTPGPSLSQGVSVDEKLMPSAPVNTTTYVADTESEQADTWDLSERPKEIKVSKMEQKFRMLSQDAPTVKESCKTSSNNNSMVSNTLAKMRIPNYQLSPTKLPSINKSKDRASQQQQTNSIRNYFQPSTKKRERDEENQEMSSCKSARIETSCSLLEQTQPATPSLWKNKEQHLSENEPVDTNSDNNLFTDTDLKSIVKNSASKSHAAEKLRSNKKREMDDVAIEDEVLEQLFKDTKPELEIDVKVQKQEEDVNVRKRPRMDIETNDTFSDEAVPESSKISQENEIGKKRELKEDSLWSAKEISNNDKLQDDSEMLPKKLLLTEFRSLVIKNSTSRNPSGINDDYGQLKNFKKFKKVTYPGAGKLPHIIGGSDLIAHHARKNTELEEWLRQEMEVQNQHAKEESLADDLFRYNPYLKRRR [NBN] | -0.0211 | 48.7 | 49.7 | 0.727 | 1.8 | -0.152
2 | MWLQQRLKGLPGLLSSSWARRLLCLLGLLLLLLWFGGSGARRAAGGLHLLPWSRGEPGAAEPSACLEAATRAWRGLRERGEVVPLGPGVPALVANGFLALDVAANRLWVTPGEREPAVAPDFVPFVQLRPLSALAEAGEAVLLLREGLLRRVRCLQLGSPGPGPVAAGPGPASVSGLAAGSGRDCVLLQEDFLAHRGRPHVYLQRIQLNNPTERVAALQTVGPTAGPAPKAFTSTLEKVGDHQFLLYSGRSPPTPTGLVHLVVVAAKKLVNRLQVAPKTQLDETVLWVVHVSGPINPQVLKSKAAKELKALQDLARKEMLELLDMPAAELLQDHQLLWAQLFSPGVEMKKITDTHTPSGLTVNLTLYYMLSCSPAPLLSPSLSHRERDQMESTLNYEDHCFSGHATMHAENLWPGRLSSVQQILQLSDLWRLTLQKRGCKGLVKVGAPGILQGMVLSFGGLQFTENHLQFQADPDVLHNSYALHGIRYKNDHINLAVLADAEGKPYLHVSVESRGQPVKIYACKAGCLDEPVELTSAPTGHTFSVMVTQPITPLLYISTDLTHLQDLRHTLHLKAILAHDEHMAQQDPGLPFLFWFSVASLITLFHLFLFKLIYNEYCGPGAKPLFRSKEDPSV [KIAA2013] | -0.156 | 56.9 | 56.1 | -3.23 | -4.42 | -0.126
3 | MWNMLIVAMCLALLGCLQAQELQGHVSIILLGATGDLAKKYLWQGLFQLYLDEAGRGHSFSFHGAALTAPKQGQELMAKALESLSCPKDMAPSHCAEHKDQFLQLSQYRQLKTAEDYQALNKDIEAQLQHAGLREAGRIFYFSVPPFAYEDIARNINSSCRPGPGAWLRVVLEKPFGHDHFSAQQLATELGTFFQEEEMYRVDHYLGKQAVAQILPFRDQNRKALDGLWNRHHVERVEIIMKETVDAEGRTSFYEEYGVIRDVLQNHLTEVLTLVAMELPHNVSSAEAVLRHKLQVFQALRGLQRGSAVVGQYQSYSEQVRRELQKPDSFHSLTPTFAAVLVHIDNLRWEGVPFILMSGKALDERVGYARILFKNQACCVQSEKHWAAAQSQCLPRQLVFHIGHGDLGSPAVLVSRNLFRPSLPSSWKEMEGPPGLRLFGSPLSDYYAYSPVRERDAHSVLLSHIFHGRKNFFITTENLLASWNFWTPLLESLAHKAPRLYPGGAENGRLLDFEFSSGRLFFSQQQPEQLVPGPGPAPMPSDFQVLRAKYRESPLVSAWSEELISKLANDIEATAVRAVRRFGQFHLALSGGSSPVALFQQLATAHYGFPWAHTHLWLVDERCVPLSDPESNFQGLQAHLLQHVRIPYYNIHPMPVHLQQRLCAEEDQGAQIYAREISALVANSSFDLVLLGMGADGHTASLFPQSPTGLDGEQLVVLTTSPSQPHRRMSLSLPLINRAKKVAVLVMGRMKREITTLVSRVGHEPKKWPISGVLPHSGQLVWYMDYDAFLG [H6PD] | 0.122 | 53.3 | 53.7 | 1.01 | 2.18 | 0.0207
4 | MWRGLWTLAAQAARGPRRLCTRRSSGAPAPGSGATIFALSSGQGRCGIAVIRTSGPASGHALRILTAPRDLPLARHASLRLLSDPRSGEPLDRALVLWFPGPQSFTGEDCVEFHVHGGPAVVSGVLQALGSVPGLRPAEAGEFTRRAFANGKLNLTEVEGLADLIHAETEAQRRQALRQLDGELGHLCRGWAETLTKALAHVEAYIDFGEDDNLEEGVLEQADIEVRALQVALGAHLRDARRGQRLRSGVHVVVTGPPNAGKSSLVNLLSRKPVSIVSPEPGTTRDVLETPVDLAGFPVLLSDTAGLREGVGPVEQEGVRRARERLEQADLILAMLDASDLASPSSCNFLATVVASVGAQSPSDSSQRLLLVLNKSDLLSPEGPGPGPDLPPHLLLSCLTGEGLDGLLEALRKELAAVCGDPSTDPPLLTRARHQHHLQGCLDALGHYKQSKDLALAAEALRVARGHLTRLTGGGGTEEILDIIFQDFCVGK [GTPBP3] | 0.505 | 53.2 | 52.4 | -0.238 | -0.0908 | 0.0593
5 | MWRLPGARAALRVIRTAVEKLSRAEAGSQTAAGAMERAVVRCVPSEPKLSLSFALADGSHKNMQRDQSEPLGRVLSRIATNALKGHAKAAAAKKSRKSRPNASGGAACSGPGPEPAVFCEPVVKLYYREEAVAEDVLNVDAWQDGAVLQIGDVKYKVERNPPAFTELQLPRYIMAGFPVCPKLSLEFGDPASSLFRWYKEAKPGAAEPEVGVPSSLSPSSPSSSWTETDVEERVYTPSNADIGLRLKLHCTPGDGQRFGHSRELESVCVVEAGPGTCTFDHRHLYTKKVTEDALIRTVSYNILADTYAQTEFSRTVLYPYCAPYALELDYRQNLIQKELTGYNADVICLQEVDRAVFSDSLVPALEAFGLEGVFRIKQHEGLATFYRKSKFSLLSQHDISFYEALESDPLHKELLEKLVLYPSAQEKVLQRSSVLQVSVLQSTKDSSKRICVANTHLYWHPKGGYIRLIQMAVALAHIRHVSCDLYPGIPVIFCGDFNSTPSTGMYHFVINGSIPEDHEDWASNGEEERCNMSLTHFFKLKSACGEPAYTNYVGGFHGCLDYIFIDLNALEVEQVIPLPSHEEVTTHQALPSVSHPSDHIALVCDLKWK [PDE12] | 0.0541 | 52.1 | 52.3 | -1.65 | -1.58 | -0.171
6 | MWRVCARRAQNVAPWAGLEARWTALQEVPGTPRVTSRSGPAPARRNSVTTGYGGVRALCGWTPSSGATPRNRLLLQLLGSPGRRYYSLPPHQKVPLPSLSPTMQAGTIARWEKKEGDKINEGDLIAEVETDKATVGFESLEECYMAKILVAEGTRDVPIGAIICITVGKPEDIEAFKNYTLDSSAAPTPQAAPAPTPAATASPPTPSAQAPGSSYPPHMQVLLPALSPTMTMGTVQRWEKKVGEKLSEGDLLAEIETDKATIGFEVQEEGYLAKILVPEGTRDVPLGTPLCIIVEKEADISAFADYRPTEVTDLKPQVPPPTPPPVAAVPPTPQPLAPTPSAPCPATPAGPKGRVFVSPLAKKLAVEKGIDLTQVKGTGPDGRITKKDIDSFVPSKVAPAPAAVVPPTGPGMAPVPTGVFTDIPISNIRRVIAQRLMQSKQTIPHYYLSIDVNMGEVLLVRKELNKILEGRSKISVNDFIIKASALACLKVPEANSSWMDTVIRQNHVVDVSVAVSTPAGLITPIVFNAHIKGVETIANDVVSLATKAREGKLQPHEFQGGTFTISNLGMFGIKNFSAIINPPQACILAIGASEDKLVPADNEKGFDVASMMSVTLSCDHRVVDGAVGAQWLAEFRKYLEKPITMLL [DLAT] | 0.263 | 54 | 52.3 | -1.61 | -3.92 | -0.12
7 | MWSEGRYEYERIPRERAPPRSHPSDGYNRLVNIVPKKPPLLDRPGEGSYNRYYSHVDYRDYDEGRSFSHDRRSGPPHRGDESGYRWTRDDHSASRQPEYRDMRDGFRRKSFYSSHYARERSPYKRDNTFFRESPVGRKDSPHSRSGSSVSSRSYSPERSKSYSFHQSQHRKSVRPGASYKRQNEGNPERDKERPVQSLKTSRDTSPSSGSAVSSSKVLDKPSRLTEKELAEAASKWAAEKLEKSDESNLPEISEYEAGSTAPLFTDQPEEPESNTTHGIELFEDSQLTTRSKAIASKTKEIEQVYRQDCETFGMVVKMLIEKDPSLEKSIQFALRQNLHEIESAGQTWQQVPPVRNTEMDHDGTPENEGEETAQSAPQPPQAPQPLQPRKKRVRRTTQLRRTTGAPDITWGMLKKTTQEAERILLRTQTPFTPENLFLAMLSVVHCNSRKDVKPENKQ [PPHLN1] | -0.763 | 52.2 | 50.4 | 0.616 | 1.63 | 0.849
8 | MWSGRKLGSSGGWFLRVLGPGGCNTKAARPLISSAVYVKNQLSGTLQIKPGVFNEYRTIWFKSYRTIFSCLNRIKSFRYPWARLYSTSQTTVDSGEVKTFLALAHKWWDEQGVYAPLHSMNDLRVPFIRDNLLKTIPNHQPGKPLLGMKILDVGCGGGLLTEPLGRLGASVIGIDPVDENIKTAQCHKSFDPVLDKRIEYRVCSLEEIVEETAETFDAVVASEVVEHVIDLETFLQCCCQVLKPGGSLFITTINKTQLSYALGIVFSEQIASIVPKGTHTWEKFVSPETLESILESNGLSVQTVVGMLYNPFSGYWHWSENTSLNYAAYAVKSRVQEHPASAEFVLKGETEELQANACTNPAVHEKLKK [COQ3] | 0.345 | 55.3 | 56.3 | -0.812 | -0.988 | -0.0133
9 | MWSPEREAEAPAGGDPAGLLPPEWEEDEERMSFLFSAFKRSREVNSTDWDSKMGFWAPLVLSHSRRQGVVRLRLRDLQEAFQRKGSVPLGLATVLQDLLRRGELQRESDFMASVDSSWISWGVGVFLLKPLKWTLSNMLGDNKVPAEEVLVAVELLKEKAEEVYRLYQNSPLSSHPVVALSELSTLCANSCPDERTFYLVLLQLQKEKRVTVLEQNGEKIVKFARGPRAKVSPVNDVDVGVYQLMQSEQLLSRKVESLSQEAERCKEEARRACRAGKKQLALRSLKAKQRTEKRIEALHAKLDTVQGILDRIYASQTDQMVFNAYQAGVGALKLSMKDVTVEKAESLVDQIQELCDTQDEVSQTLAGGVTNGLDFDSEELEKELDILLQDTTKEPLDLPDNPRNRHFTNSVPNPRISDAELEAELEKLSLSEGGLVPSSKSPKRQLEPTLKPL [CHMP7] | 0.221 | 49.2 | 48.9 | 0.579 | 1.08 | -0.0049
